Experimental data as given in the supplement of paper PMC5998384.

Key:
HeLa Kyoto [1] = assay: solubility in G1/S (NP-40 vs SDS abundance) (log2 ratio); higher = more soluble; details: cell cycle stage: G1/S
HeLa Kyoto [2] = assay: melting temperature (median over replicates), in situ; higher = more thermally stable
HeLa Kyoto [3] = assay: solubility change mitosis vs G1/S (difference of NP-40 vs SDS log2 ratios) (log2 ratio difference); higher = more soluble in mitosis
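For melting temperature (median over replicates), in situ in this document: HeLa Kyoto cells synchronized by double thymidine or nocodazole block, proteins quantified by TMT10plex mass spectrometry, three independent biological replicates.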
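For solubility change mitosis vs G1/S (difference of NP-40 vs SDS log2 ratios) in this document: synchronized HeLa Kyoto cells (double thymidine block for G1/S, nocodazole release for mitosis), protein amounts in NP-40 versus SDS lysates quantified by mass spectrometry, three biological replicates.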
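For solubility in G1/S (NP-40 vs SDS abundance) in this document: HeLa Kyoto cells arrested at G1/S by double thymidine block, proteins quantified by TMT10plex mass spectrometry in mild NP-40 versus SDS extracts, three biological replicates.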

Sequence | solubility in G1/S (log2) (HeLa Kyoto [1]) | melting temperature (HeLa Kyoto [2]; cell cycle stage: G1/S) [°C] | melting temperature (HeLa Kyoto [2]; cell cycle stage: mitosis) [°C] | solubility change mitosis (log2) (HeLa Kyoto [3])
MASRRKSTTPCMVLASEQDPDLELISDLDEGPPVLTPVENTRAESISSDEEVHESVDSDNQQNKKVEGGYECKYCTFQTPDLNMFTFHVDSEHPNVVLNSSYVCVECNFLTKRYDALSEHNLKYHPGEENFKLTMVKRNNQTIFEQTINDLTFDGSFVKEENAEQAESTEVSSSGISISKTPIMKMMKNKVENKRIAVHHNSVEDVPEEKENEIKPDREEIVENPSSSASESNTSTSIVNRIHPSTASTVVTPAAVLPGLAQVITAVSAQQNSNLIPKVLIPVNSIPTYNAALDNNPLLLNTYNKFPYPTMSEITVLSAQAKYTEEQIKIWFSAQRLKHGVSWTPEEVEEARRKQFNGTVHTVPQTITVIPTHISTGSNGLPSILQTCQIVGQPGLVLTQVAGTNTLPVTAPIALTVAGVPSQNNIQKSQVPAAQPTAETKPATAAVPTSQSVKHETALVNPDSFGIRAKKTKEQLAELKVSYLKNQFPHDSEIIRLMKITGLTKGEIKKWFSDTRYNQRNSKSNQCLHLNNDSSTTIIIDSSDETTESPTVGTAQPKQSWNPFPDFTPQKFKEKTAEQLRVLQASFLNSSVLTDEELNRLRAQTKLTRREIDAWFTEKKKSKALKEEKMEIDESNAGSSKEEAGETSPADESGAPKSGSTGKICKKTPEQLHMLKSAFVRTQWPSPEEYDKLAKESGLARTDIVSWFGDTRYAWKNGNLKWYYYYQSANSSSMNGLSSLRKRGRGRPKGRGRGRPRGRPRGSKRINNWDRGPSLIKFKTGTAILKDYYLKHKFLNEQDLDELVNKSHMGYEQVREWFAERQRRSELGIELFEENEEEDEVIDDQEEDEEETDDSDTWEPPRHVKRKLSKSDD [ZHX1] | 0.0738 | 48.3 | 48.9 | -0.162
MAQVLHVPAPFPGTPGPASPPAFPAKDPDPPYSVETPYGYRLDLDFLKYVDDIEKGHTLRRVAVQRRPRLSSLPRGPGSWWTSTESLCSNASGDSRHSAYSYCGRGFYPQYGALETRGGFNPRVERTLLDARRRLEDQAATPTGLGSLTPSAAGSTASLVGVGLPPPTPRSSGLSTPVPPSAGHLAHVREQMAGALRKLRQLEEQVKLIPVLQVKLSVLQEEKRQLTVQLKSQKFLGHPTAGRGRSELCLDLPDPPEDPVALETRSVGTWVRERDLGMPDGEAALAAKVAVLETQLKKALQELQAAQARQADPQPQAWPPPDSPVRVDTVRVVEGPREVEVVASTAAGAPAQRAQSLEPYGTGLRALAMPGRPESPPVFRSQEVVETMCPVPAAATSNVHMVKKISITERSCDGAAGLPEVPAESSSSPPGSEVASLTQPEKSTGRVPTQEPTHREPTRQAASQESEEAGGTGGPPAGVRSIMKRKEEVADPTAHRRSLQFVGVNGGYESSSEDSSTAENISDNDSTENEAPEPRERVPSVAEAPQLRPAGTAAAKTSRQECQLSRESQHIPTAEGASGSNTEEEIRMELSPDLISACLALEKYLDNPNALTERELKVAYTTVLQEWLRLACRSDAHPELVRRHLVTFRAMSARLLDYVVNIADSNGNTALHYSVSHANFPVVQQLLDSGVCKVDKQNRAGYSPIMLTALATLKTQDDIETVLQLFRLGNINAKASQAGQTALMLAVSHGRVDVVKALLACEADVNVQDDDGSTALMCACEHGHKEIAGLLLAVPSCDISLTDRDGSTALMVALDAGQSEIASMLYSRMNIKCSFAPMSDDESPTSSSAEE [KANK2] | -0.0486 | 46.7 | – | -0.0916
MHRAPSPTAEQPPGGGDSARRTLQPRLKPSARAMALPRTLGELQLYRVLQRANLLSYYETFIQQGGDDVQQLCEAGEEEFLEIMALVGMATKPLHVRRLQKALREWATNPGLFSQPVPAVPVSSIPLFKISETAGTRKGSMSNGHGSPGEKAGSARSFSPKSPLELGEKLSPLPGGPGAGDPRIWPGRSTPESDVGAGGEEEAGSPPFSPPAGGGVPEGTGAGGLAAGGTGGGPDRLEPEMVRMVVESVERIFRSFPRGDAGEVTSLLKLNKKLARSVGHIFEMDDNDSQKEEEIRKYSIIYGRFDSKRREGKQLSLHELTINEAAAQFCMRDNTLLLRRVELFSLSRQVARESTYLSSLKGSRLHPEELGGPPLKKLKQEVGEQSHPEIQQPPPGPESYVPPYRPSLEEDSASLSGESLDGHLQAVGSCPRLTPPPADLPLALPAHGLWSRHILQQTLMDEGLRLARLVSHDRVGRLSPCVPAKPPLAEFEEGLLDRCPAPGPHPALVEGRRSSVKVEAEASRQ [NAB2] | 0.298 | – | 48.9 | -0.11
MVMYARKQQRLSDGCHDRRGDSQPYQALKYSSKSHPSSGDHRHEKMRDAGDPSPPNKMLRRSDSPENKYSDSTGHSKAKNVHTHRVRERDGGTSYSPQENSHNHSALHSSNSHSSNPSNNPSKTSDAPYDSADDWSEHISSSGKKYYYNCRTEVSQWEKPKEWLEREQRQKEANKMAVNSFPKDRDYRREVMQATATSGFASGMEDKHSSDASSLLPQNILSQTSRHNDRDYRLPRAETHSSSTPVQHPIKPVVHPTATPSTVPSSPFTLQSDHQPKKSFDANGASTLSKLPTPTSSVPAQKTERKESTSGDKPVSHSCTTPSTSSASGLNPTSAPPTSASAVPVSPVPQSPIPPLLQDPNLLRQLLPALQATLQLNNSNVDISKINEVLTAAVTQASLQSIIHKFLTAGPSAFNITSLISQAAQLSTQAQPSNQSPMSLTSDASSPRSYVSPRISTPQTNTVPIKPLISTPPVSSQPKVSTPVVKQGPVSQSATQQPVTADKQQGHEPVSPRSLQRSSSQRSPSPGPNHTSNSSNASNATVVPQNSSARSTCSLTPALAAHFSENLIKHVQGWPADHAEKQASRLREEAHNMGTIHMSEICTELKNLRSLVRVCEIQATLREQRILFLRQQIKELEKLKNQNSFMV [WAC] | 0.525 | 46.5 | 49.9 | 0.139
MSSSSSSPRETYEEDREYESQAKRLKTEEGEIDYSAEEGENRREATPRGGGDGGGGGRSFSQPEAGGSHHKVSVSPVVHVRGLCESVVEADLVEALEKFGTICYVMMMPFKRQALVEFENIDSAKECVTFAADEPVYIAGQQAFFNYSTSKRITRPGNTDDPSGGNKVLLLSIQNPLYPITVDVLYTVCNPVGKVQRIVIFKRNGIQAMVEFESVLCAQKAKAALNGADIYAGCCTLKIEYARPTRLNVIRNDNDSWDYTKPYLGRRDRGKGRQRQAILGEHPSSFRHDGYGSHGPLLPLPSRYRMGSRDTPELVAYPLPQASSSYMHGGNPSGSVVMVSGLHQLKMNCSRVFNLFCLYGNIEKVKFMKTIPGTALVEMGDEYAVERAVTHLNNVKLFGKRLNVCVSKQHSVVPSQIFELEDGTSSYKDFAMSKNNRFTSAGQASKNIIQPPSCVLHYYNVPLCVTEETFTKLCNDHEVLTFIKYKVFDAKPSAKTLSGLLEWECKTDAVEALTALNHYQIRVPNGSNPYTLKLCFSTSSHL [HNRPLL] | -0.0931 | 47.6 | 49.7 | -0.0114
MAQEEEDVRDYNLTEEQKAIKAKYPPVNRKYEYLDHTADVQLHAWGDTLEEAFEQCAMAMFGYMTDTGTVEPLQTVEVETQGDDLQSLLFHFLDEWLYKFSADEFFIPREVKVLSIDQRNFKLRSIGWGEEFSLSKHPQGTEVKAITYSAMQVYNEENPEVFVIIDI [ZBTB8OS] | 0.153 | 52.6 | 53.1 | 0.0908
